The values that follow are results of earlier work, collected in paper PMC4958339.

One series deals with Lgl (UniProt P08111).
A further series addresses Pins/LGN (UniProt Q8VDU0).
Sequence of UniProt Q8VDU0 (Q8VDU0 392-414): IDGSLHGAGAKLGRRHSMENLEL

Sequence of UniProt P08111 (P08111 648-670): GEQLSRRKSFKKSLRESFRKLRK

Take Dlg GUK (from UniProt Q12959): the dissociation constant Kd with Lgl was 10.2 µM; with Pins/LGN it was 0.33 µM.
